This series in a line: soluble on expression in E. coli; label from the status in PepcDB or PDB records.
As to “MSEQQPNLRERRRSETRRLVQAHAVRLFTDHGYDAVTVADVAEAAGVSAMTVYRHFPTKEDLVLIDQPAQLIAEHVAASSAAQPLVRRVGSALIDAATNWTGGNGDEQAANERFLLDCLRLMVSTPALRARHLDSQYALQQAIVDALGDDATGPDAAFRAQAATSACIAAMHTALTRWVEDDGHTKLPDLIARALTASFGDDAVATRRKG”, the “soluble on expression in E. coli” value is listed as “not soluble”.
“MGHHHHHHSHMSSILPFTPPIVKRLLGWKKGEQNGQEEKWCEKAVKSLVKKLKKTGQLDELEKAITTQNVNTKCITIPRSLDGRLQVSHRKGLPHVIYCRLWRWPDLHSHHELRAMELCEFAFNMKKDEVCVNPYHYQRVETPVLPPVLVPRHTEIPAEFPPLDDYSHSIPENTNFPAGIEPQSNIPETPPPGYLSEDGETSDHQMNHSMDAGSPNLSPNPMSPAHNNLDLQPVTYCEPAFWCSISYYELNQRVGETFHASQPSMTVDGFTDPSNSERFCLGLLSNVNRNAAVELTRRHIGRGVRLYYIGGEVFAECLSDSAIFVQSPNCNQRYGWHPATVCKIPPGCNLKIFNNQEFAALLAQSVNQGFEAVYQLTRMCTIRMSFVKGWGAEYRRQTVTSTPCWIELHLNGPLQWLDKVLTQMGSPSIRCSSVS”: the “soluble on expression in E. coli” value is on record as “soluble”.
As to “MGSDKIHHHHHHMSAIPQAARKRGRPVKGESATLRDELILKSAKLFRTQGYERTTVRDIAAAAGVQAGSWFYYFKTKQDILVAVMEQGMSNALARIEALDVEHLPARDAFRALVHTHLHTLVSPDHDFIPVLLYEWKSLDEAMQAKVLKLKDRYEAVWDGVIERLQAAGEWPAPTPIDRLLMFGALNWVAQWYKPDGALGLDALAEHAVRFLLRTAETPAPAPAGTAKRRRGVKAS”, the “soluble on expression in E. coli” value is “not soluble”.
For the sequence “MVPPITSDEFCETSGCFGDSANLHTTLERLKININSDAKKLVDTNGDLKKHQRFLRIAKVTSLRSKDPNTQVGCVIVDKDNCIVSVGYNGFPIGVDDDVFRWDKEDPEDNKHLYVVHAEMNAIINKRCTTLHDCTVYVTLFPCNKCAQMLIQSRVKKVYFLENRDELAFRASKKMLDHARLPYEQIVMPQEAYVIEL”, the “soluble on expression in E. coli” value was “not soluble”.
Regarding “MTAVVSNREEDSMNNEPSLSGRAIIGLIYPPPDIRTIVDKTARFAAKNGVDFENKIREKEAKNPKFNFLSITDPYHAYYKKMVYDFSEGRVEAPKVPQAVKEHVKKAEFVPSAPPPAYEFSADPSTINAYDLDLIRLVALFVARNGRQFLTQLMTREARNYQFDFLKPAHCNFTYFTKLVDQYQKVLVPSTNVVAQLQDDATNKKRLIEDINYRVSWEKHQKGLKDREEAEAEKERQAYASIDWHDFVVVQTVDFQPGDTSQLPPLCTPKDVGARILLEARNEMQKAAAEMQEMDMEESDSDDEDAVQAPEAPAFTAPLPPTKQKDVIVRDYDPKRNVTQKPKAVENWIISPLTGERIPSDKLAEHVRYNTVDSQYKEDRDRHIGERSTEEPVLALGADISRNLGNFAERRTDIFGVGGEQTMIGKKLGEEDNSQQGQNKLIWDGTEETRDMITRAVQNKVTLDQQINEIHRQHGFVADPSKEKIGAQQVPRHQSTQGNVTITQGITNIPGQMPSGWPPVPPMGMPGMPNQALPPIRQMDFGGGPPAKRPRTEDDLIPEADWLKKVNGAISLNVHLPQAPEHGMDGSIVQFTIQVTAPMSELKQQIQDRYGMPVGKQKLMSDGLFVKDNMSSAFYNLADRTAIYLQVKERGGKKK”, the “soluble on expression in E. coli” value is “not soluble”.
For “GMDIQNMPREQLGVCAEGNLHSVYLMFNANDNVESQLRPCIANVAQYIYELTDQYSDSAFNGFVAIGANYWDSLYPESRPEMLKPFPAMQEGNREAPAIEYDLFVHLRCDRYDILHLVANEISQMFEDLVELVEEERGFRFMDSRDLTGFVDGTENPKGRHRQEVALVGSEDPEFKGGSYIHVQKYAHNLSKWHRLPLKKQEDIIGRTKQDNIEYESEDKPLTSHIKRVNLKDENGKSIEILRQSMPYGSLKEQGLMFISTCRTPDHFEKMLHSMVFGDGAGNHDHLMHFTSALTGSSFFAPSLDFLMQFDN” the value was “soluble”; for “MLPKPGTYYLPWEVSAGQVPDGSTLRTFGRLCLYDMIQSRVTLMAQHGSDQHQVLVCTKLVEPFHAQVGSLYIVLGELQHQQDRGSVVKARVLTCV”, “not soluble”.
For the sequence “DAAGVSEVEVEATEIENLKAELSEMEDKFLRARAEIANMSNRNKNERELLVRYRSQDLGKKILPSIDNLERAMAIEVSDEQGESLKKGISMVLESITVALKEEG”, the “soluble on expression in E. coli” value is recorded as “not soluble”.
In the case of “GHLYLVPTPIGNLDDMTFRAVKTLTAVDLIAAEDTRNTQKLLNHFEITTKQISFHEHNTQERIPQLIAKLKQGMQIAQVSDAGMPSISDPGHELVNACIDAHIPVVPLPGA”, the “soluble on expression in E. coli” value was “not soluble”.
For “MITSYEATVVTTDDIVHEVNLEGKRIGYVIKTENKETPFTVVDIDGPSGNVKTLNDGVKKMCLVHIGKNLPAEKKAEFLATLIAMKLKGEI”, the “soluble on expression in E. coli” value was “not soluble”.
“MRFVPSYLIGFITLYLKGKVMLSIFDIYKIGVGPSSSHTNGPMIAGYRFVQQLLPQLNKVARIQVDLYGSLSLTGKGHHTDRATLLGLMGNQPATIKIGDANQTLREALQTGKLRLNGQHDIAFDYHQDLLFHQDNLPLHENGMTLSAFDTQGQQIDFETYYSVGGGFVATAEQLQNGT”: the “soluble on expression in E. coli” value is reported as “not soluble”.
For “MKRKFLIGSHGRLASGLQSSIDILAGMGQALETIDAYVDDSDYTSQIDDFIAGVAADEQGLIFTDLLGGSVNQKMVTAVMNSGKDNIFLITNSNLATLLSLVFLKPGEALTKDEIVTVINESQVQLVDLVPETNSEDDFFD” the value was “not soluble”; for “MSLNAQNAGINFLHGTTWAEAVAKAKAENKLIFIDFYTQWCGPCMNMAQTVFSLPTVGYYYNQTFINLKIDAEEGEGITLAKKYGVRSYPTYAFVDPATEEIVHRSSSRQTPEQFIQTGKDANIPTKRSFYLQEQYTKGNRERAFLIDYINYHYSVYARNNVQAAFDELIKGGAKLTDPDVWEVYVNTINGMNPYLKQVSDNYADFCQRFGKKAVDAKLAKETSYGELAEIEALCNYEGKDFNLKMIRINNDIREQKYEAAATQIDAMIADTTVNQQELISRLKFIARLGYKAEELPEFWFNKCVGYLQYIAYNQTDRDDAFIHQEYAAALEMVLRKLNGKAPIPACLSTEPAYGKKVYNMRPDALKMKPKREGHHHHHH”, “soluble”.
Take “MVEAIIFDMDGVLFDTEKYYYDRRASFLGQKGISIDHLPPSFFIGGNTKQVWENILRDEYDKWDVSTLQEEYNTYKQNNPLPYKELIFPDVLKVLNEVKSQGLNIGLASSSVKADIFRALEENRLQAFFDIVLSGEEFKESKPNPEIYLTALKQLNVQASRALIIEDSEKGIAAGVAADVEVWAIRDNLFGMDQSAAKGLLDSLTDVLDLIK”: the “soluble on expression in E. coli” value is listed as “not soluble”.
On to “MSISASEARQRLFPLIEQVNTDHQPVRITSRAGDAVLMSADDYDAWQETVYLLRSPENARRLMEAVARDKAGHSAFTKSVDELREMAGGEE”, for which the “soluble on expression in E. coli” value was “soluble”.
For “MEKSWYVVHTYSGYENKVKANLEKRVESMGMQDKIFRVVVPEEVEVEMKNGKEKLMKRKVFPGYVLVELIMTDDSWYVVRNTPGVTGFVGSSGSGSKPSPLLEEEVVTIMKHMGMDNEVVDFDFELHETVRVNEGPFADYTGAIEEIDVEKKKVSVLVDMFGRETPVELDFHQIEKL”, the “soluble on expression in E. coli” value is listed as “soluble”.
“MILGEIMEVLAFKNQSLIDHVNDMVKYWERIKYRYLKTIKRALEALNIKLDIEKVDEFMKILIKLHDIGKASKIYQRAIINDQEKLMGFRHELVSAYYTYHILLKKFGDKNLAFIGALTVMLHHEPIIMGQIRNLKKKELTAEVVLDKLKKFDGMIEDFEDLIKKLIGYSIGDIIKNDSNKDDIIRFVIEMSVRARHTPNSEKLRFIVGTLLLPLVMCDYKGAESREGKAPKFAEVLEVESYVI”: the “soluble on expression in E. coli” value is on record as “soluble”.
As for “MAHHHHHHMKENVLINENIKAHEEKGNLNDDKRDEHMISLRGLNIYYKDKLENLNTIKNIDNNKKFIKLVLEDVDLKPEEIMKHILHLLKEKTSLHTILEINKQKYKIKYKEIIPDDHILFTQNIQNITNCKYALLGILKVSKYTKKNTFNEKLLQSWQDVPMEF”, the “soluble on expression in E. coli” value is listed as “not soluble”.
For “MSSENDFVEFSSMFERIIQGRGDGLSRFLPVIVALAAREDDDDQGSTDQTTRRGDPLSPRFVMIGSRSGLDDFFSDGGKQGRSPALKSEVENMPRVVIGEDKEKYGGSCAICLDEWSKGDVAAEMPCKHKFHSKCVEEWLGRHATCPMCRYEMPVEEVEEEKKIGIWIGFSINAGDRRN” the value was “not soluble”; for “GMNTNLASFIVGLIIDENDRFYFVQKDGQTYALAKEEGQHTVGDTVKGFAYTDMKQKLRLTTLEVTATQDQFGWGRVTEVRKDLGVFVDTGLPDKEIVVSLDILPELKELWPKKGDQLYIRLEVDKKDRIWGLLAYQEDFQRLARPAYNNMQNQNWPAIVYRLKLSGTFVYLPENNMLGFIHPSERYAEPRLGQVLDARVIGFREVDRTLNLSLKPRSFEMLENDAQMILTYLESNGGFMTLNDKSSPDDIKATFGISKGQFKKALGGLMKAGKIKQDQFGTELI”, “soluble”; for “MNVCFFPRLKEFILNQDWNDPKSQLQQCCLTLRTEGKEPDIPLYKTLQTVGPSHARTYTVAVYFKGERIGCGKGPSIQQAEMGAAMDALEKYNFPQMAHQKRFIERKYRQELKEMRWEREHQEREPEEAEDIKK”, “soluble”.
Consider “MESFQTIVDNEVLMESCGIQQESKIKNFPWAVSFTVDGVNRLGGSIISPYHIITAAHGFITTIGSRGNLCENKNWKKPNSSIYRSIKFLRDTRKVAYGGTCIRGHTDKYPNDPRCKKSDVIHNKVRAVLVDGEFASSNCLKGHDWAIVEVEKRIHFSENVRPICLPRPNMYYTKSLAVPGWGRIFNESGPLIHEIPMRIDRDCKRPWSDRLPADADDFICATSMNVSNYSAPRTCHGDSGGGLEYRDDNYGRAFLIAITSFGTRGCPSNMLARFTRVDMYLNLICNYTGVCY”, for which the “soluble on expression in E. coli” value is “not soluble”.
Consider “MKRLMFIGPSQCGKTSLTQSLRGEALHYKKTQAIEWSPMAIDTPGEYLENRCLYSALLTSACEADVIALVLNADAQWSPFSPGFTAPMNRPTIGLVTKADLAEPQRISLVAEWLTQAGAQQIFITSALNNSGLDAVLDFLNSKEPLCLTKLEHHHHHH”, for which the “soluble on expression in E. coli” value is “soluble”.
For “MSDVKSVIESGRAVLGIEFGSTRIKAVLIGEDHAPIATGAHDWENMLVDGIWTYSLDMIWEGISDCYSKMAQDAKEKYGVTIKKLAAIGISGMMHGYLPFDEEDNLLVPFRTWRNTITGEAAAELTEVLGFNIPQRWSIAHLYQAILNKEEHVSKISYFTTLAGYIHWQLTGEKVMGVGEASGMFPIDSKTRDYDAAMLDKFAALDKVKEYPWDIRDILPKVLTAGEKAGTLTEEGAKRLDVSGNLESGILLAPPEGDAGTGMVATNSVAVRTGNVSAGTSVFAMVVLEKALKAVHEELDMVTTPSGDAVAMVHCNNCTSDLNAWVGLFKEFSELFGMDIDMNDIYGKLYNNALTADKDCGGLVAFNLFSGEPVIGLNEGRPMFARKPDARMNLANFMRTHLYASLATLKIGCDILFKEEKVKVDTLYGHGGLFKTKGVGQSILAAAMDAPVAVMETAGEGGPWGMAVLAAYMVNKADGEPLEKYLSDRVFNGEKGIVMQPDPDDVKGFDEYINTYKAAIEAERAMVKALPLLEHHHHHH” the value was “soluble”.
As for “MSLNTSRKERSVSTFSIVGYDPKTDELGIAVQSKFLGVGAIVPWAKAGVGAIATQSYANTSYGSKGLDLLARGKTAEETLALLINEDADRHLRQVGIVDAKGRAASFTGQGCYEWAGSMTGHCFAVQGNLLVSEETVKTMAQKFVQATGSLAERLLLTLEAGQCAGGDRRGKQSAALLIVKEKGGYGGFNDRLIDLRVDDHPEPIQELKRIFELQQLYFAKPKEQDQLPLTDDRISIIKSSLHSLGYLSLTQHWRDALQQFIATENLEGRMGTGTQTIDRVVFSFLQKKAKEEGHHHHHH”, the “soluble on expression in E. coli” value was “soluble”.

Source of the values: the DeepSol protein solubility set.
